# Data taken from article PMC11853024.
# What was measured:
# [1] = target: rat LH/chorionic gonadotropin receptor (rLH/CGR), in CHO-K1 cells (rat) (UniProt P16235)
# [2] = target: rat FSH receptor (rFSHR), in CHO-K1 cells (rat) (UniProt P20395)
# [3] = target: equine LH/chorionic gonadotropin receptor (eLH/CGR), in CHO-K1 cells (equine)
# [4] = target: equine LH/chorionic gonadotropin receptor from pVSVG-eLH/CGR (pCORON1000 SP VSV-G), in HEK 293 cells (equine)
# UniProt P16235, sequence (P16235 27-700): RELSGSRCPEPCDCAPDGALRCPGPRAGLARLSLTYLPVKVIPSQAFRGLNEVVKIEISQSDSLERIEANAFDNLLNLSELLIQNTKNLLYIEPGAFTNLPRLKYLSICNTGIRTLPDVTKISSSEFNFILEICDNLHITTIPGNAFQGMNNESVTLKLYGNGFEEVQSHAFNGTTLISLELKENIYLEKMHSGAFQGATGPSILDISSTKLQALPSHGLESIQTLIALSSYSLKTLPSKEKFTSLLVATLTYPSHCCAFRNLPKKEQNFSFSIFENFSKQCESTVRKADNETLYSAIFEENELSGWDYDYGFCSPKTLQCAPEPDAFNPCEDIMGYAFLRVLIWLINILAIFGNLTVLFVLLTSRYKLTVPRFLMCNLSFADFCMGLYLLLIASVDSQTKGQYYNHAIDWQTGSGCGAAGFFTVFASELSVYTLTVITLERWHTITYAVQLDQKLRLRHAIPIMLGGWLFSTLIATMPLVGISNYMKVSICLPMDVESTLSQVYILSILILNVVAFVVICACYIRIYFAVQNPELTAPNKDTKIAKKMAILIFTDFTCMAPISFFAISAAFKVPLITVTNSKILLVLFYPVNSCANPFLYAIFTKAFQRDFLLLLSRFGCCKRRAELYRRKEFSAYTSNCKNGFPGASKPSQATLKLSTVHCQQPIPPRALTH
# UniProt P20395, sequence (P20395 18-692): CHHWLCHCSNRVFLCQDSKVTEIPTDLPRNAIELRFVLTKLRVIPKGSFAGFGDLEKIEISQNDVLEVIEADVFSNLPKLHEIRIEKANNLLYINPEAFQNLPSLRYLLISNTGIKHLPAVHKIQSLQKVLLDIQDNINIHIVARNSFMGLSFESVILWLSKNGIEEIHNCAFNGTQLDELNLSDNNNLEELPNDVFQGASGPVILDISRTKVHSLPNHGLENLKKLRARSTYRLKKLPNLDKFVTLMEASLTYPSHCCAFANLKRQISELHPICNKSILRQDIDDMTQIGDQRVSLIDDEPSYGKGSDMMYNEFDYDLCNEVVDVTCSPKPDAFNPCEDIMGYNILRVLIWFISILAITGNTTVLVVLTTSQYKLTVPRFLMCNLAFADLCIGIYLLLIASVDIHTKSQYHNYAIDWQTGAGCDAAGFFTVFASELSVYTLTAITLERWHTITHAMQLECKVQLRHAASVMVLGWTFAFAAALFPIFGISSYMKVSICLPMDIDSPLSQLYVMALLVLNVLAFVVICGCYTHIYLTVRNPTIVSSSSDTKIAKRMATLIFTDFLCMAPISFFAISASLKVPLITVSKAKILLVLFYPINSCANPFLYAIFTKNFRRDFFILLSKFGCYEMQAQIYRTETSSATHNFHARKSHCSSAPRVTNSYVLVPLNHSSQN
substance,measurement,setting,value
single-chain recombinant equine chorionic gonadotropin β/α (rec-eCG β/α) (from UniProt P08751 21-169) (ligand),"cAMP production (HTRF) in CHO-K1 cells expressing rLH/CGR, 30 min with rec-eCG: EC50",[1],0.03 ng/mL
same,"cAMP production (HTRF) in CHO-K1 cells expressing rFSHR, 30 min with rec-eCG: EC50",[2],0.1 ng/mL
same,"cAMP production (HTRF) in CHO-K1 cells expressing eLH/CGR, 30 min with rec-eCG: EC50",[3],0.2 ng/mL
same,"pERK1/2 activation (HTRF) in HEK 293 cells expressing eLH/CGR, 50 and 250 ng/mL rec-eCG, 0 to 30 min, fold over basal activity",[4],7.8 fold
